Measured values: paper PMC6237974

Legend:
[1] = biological target: cytoplasmic region of VgrS that contained the HAMP and transmitter regions (Xanthomonas campestris pv. campestris 8004); assay: not stated; Supplementary Fig. 4b and 4c; Prc with the cytoplasmic region of VgrS
VgrS sensor = assay: SPR
[2] = tested on: VgrR-P (phosphorylated by VgrS + ATP) (Xanthomonas campestris pv. campestris 8004); assay: MST; conditions: MST: 50 mM Tris-HCl pH 7.4, 150 mM NaCl, 10 mM MgCl2, 0.05% Tween-20; EMSA: 10 mM Tris-HCl pH 7.5, 50 mM KCl, 1 mM DTT, 50 ng poly(dI:dC), 10 mM EDTA, 28 C
[3] = biological target: VgrS sensor (Xanthomonas campestris pv. campestris 8004); assay: MST; VgrS sensor labelled with NT-647, titrated with Prc forms in NTA buffer (300 mM NaCl, 50 mM sodium phosphate, pH 7.0) with 0.05% Tween; Monolith NT.115; three replicates
[4] = biological target: VgrS sensor (Xanthomonas campestris pv. campestris 8004); assay: SPR; Biacore 3000, VgrS sensor trapped on a CM5 chip, Prc forms injected at 30 μl/min, 25 °C, PBST pH 7.4
[5] = biological target: Prc^S475A monomer (Xanthomonas campestris pv. campestris 8004); assay: SEC + AUC; Prc^S475A separated by gel filtration; sedimentation velocity of each peak at 20 °C, sodium phosphate buffer pH 8.0 plus 150 mM NaCl

Work on “Prc (form not told, binding to the cytoplasmic region of VgrS) (enzyme)” yielded a Kd [1] of 191 µM.

Prc^S475A monomer was tested, and the Ka (VgrS sensor; enzyme) was 29500 M⁻¹ and the koff (VgrS sensor; enzyme) was 0.00842 s⁻¹.

PXC_3300 promoter probe showed a Kd [2] of 30.7 µM.

With “recombinant Prc^S475A containing peptidase and DUF regions” the Ka (VgrS sensor; domain or fragment) was 44700 M⁻¹.

With “recombinant Prc^S475A containing peptidase and DUF regions (domain or fragment)” the Kd [3] was 0.27 µM and the Kd [4] was 22.4 µM.

PrcΔPDZ^S475A (enzyme) gave a Kd [3] of 1.95 µM.

For Prc^S475A monomer (enzyme), the stoichiometry N [5] was 3, the Kd [3] was 0.65 µM and the Kd [4] was 33.9 µM.
